In US20200317776A1 (published 2020):

Tests used:
[1] = target: T1, human TREM2/DAP12 fusion protein (human, UniProt O43914 41-113, limits assumed); assay: cell-based or functional assay
[2] = target: T1, human TREM2/DAP12 fusion protein; assay: cell-based or functional assay; remark: listed apart in the source
[3] = target: T2, human TREM2 expressed on cells (human, UniProt Q9NZC2 19-230); assay: FACS, hTREM2 BW cells
T2 construct: BW5147.G.1.4 cells stably expressing human TREM2 together with Dap12, or endogenous TREM2 of primary human myeloid cells; also called huT2 BW; hTREM2 expressing cell line
T2 sequence: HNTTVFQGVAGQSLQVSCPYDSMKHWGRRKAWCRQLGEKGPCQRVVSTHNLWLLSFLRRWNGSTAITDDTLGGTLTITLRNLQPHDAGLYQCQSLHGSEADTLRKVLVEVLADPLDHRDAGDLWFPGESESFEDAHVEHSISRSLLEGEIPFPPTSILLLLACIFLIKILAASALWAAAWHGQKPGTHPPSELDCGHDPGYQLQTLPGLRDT
Method in brief: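 BW5147.G.1.4 cells stably co-expressing human TREM2 and Dap12, 1×10⁵ cells/well, incubated with anti-TREM2 antibody 1 h on ice in PBS/2% FBS. Anti-human PE secondary 30 min on ice; flow cytometry, binding as mean fluorescence intensity.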

[4] = target: T3, human TREM2 Fc fusion (entire TREM2 ECD; only one Fc arm fused to TREM2) (human, UniProt Q9NZC2 19-174); assay: BLI, Fab, monovalent
T3 construct: also called huTREM2-Fc; recombinant hTREM2
T3 sequence: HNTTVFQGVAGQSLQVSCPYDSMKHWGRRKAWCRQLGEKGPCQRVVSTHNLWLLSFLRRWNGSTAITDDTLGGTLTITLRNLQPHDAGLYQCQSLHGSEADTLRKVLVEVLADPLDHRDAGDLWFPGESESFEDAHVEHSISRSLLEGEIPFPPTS
Method in brief: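 TREM2 Fc fusion antigen was loaded onto AHQ biosensors, with a 60 s baseline in assay buffer. The sensors were then exposed to 100 nM antibody Fab for monovalent binding. Data were fitted to a 1:1 model, and the assay ran at 25 °C.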

[5] = target: T2, human TREM2 expressed on cells; assay: cell-based or functional assay
[6] = target: T2, human TREM2 expressed on cells; assay: FACS, hTREM2 BW cells; remark: listed apart in the source

T1 sequence (O43914 other isoform, or with tags, fused parts or gaps limits assumed): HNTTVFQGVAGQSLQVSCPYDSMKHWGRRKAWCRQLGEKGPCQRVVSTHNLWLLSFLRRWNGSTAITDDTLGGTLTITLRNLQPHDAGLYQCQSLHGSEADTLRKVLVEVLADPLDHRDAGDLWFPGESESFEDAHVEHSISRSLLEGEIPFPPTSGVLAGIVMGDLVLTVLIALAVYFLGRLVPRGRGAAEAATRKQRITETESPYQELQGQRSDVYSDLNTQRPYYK

| Binder | Soluble luciferase activation at 10 µg/ml Fold over control [1] | Plate bound IgG, fold over unstimulated control (25 nM IgG) [2] | Soluble IgG, EC50 [2] | Soluble IgG, fold over control IgG (17 nM IgG) [2] | cell binding (FOB) [3] | Kd [4] | EC50 viability, dendritic cells D558 [5] | EC50 viability, dendritic cells D559 [5] | EC50 viability, dendritic cells D560 [5] | EC50 viability, macrophages D558 [5] | EC50 viability, macrophages D559 [5] | EC50 viability, macrophages D560 [5] | Bmax (MFI) [6] | Kd [6] |
| --- | --- | --- | --- | --- | --- | --- | --- | --- | --- | --- | --- | --- | --- | --- |
| AL2p huIgG1 (human mouse chimeric parental antibody) (antibody, V domains shown, Mouse variable region with human IgG1 Fc region; Fab and IgG formats under one id; also called chimeric parental AL2p antibody as huIgG1) VH: QVQLQQSGPELVKPGASLKISCKASGYAFSSSWMNWVKQRPGKGLEWIGRIYPGDGDTNYNGEFRVRATLTADTSSTTAYMQLSSLTSEDSAVYFCARLLRNQPGESYAMDYWGQGASVTVSS VL: DVVMTQTPLSLPVSLGDQASISCRSSQSLVHSNGYTYLHWYLQKPGQSPKLLIYKVSNRFSGVPDRFSGSGSGTDFTLKISRVEADDLGVYFCSQSTRVPYTFGGGTKLEIK | 3.55 fold over control | 1.29 fold | 14.6 nM | 4.51 fold | 79 FOB | 102 nM | 95.7 nM | 41.2 nM | 55.1 nM | 12.3 nM | 146 nM | 129 nM | 199000 MFI | 1.32 nM |
| AL2p-47 huIgG1 (antibody, V domains shown) VH: QVQLVQSGAEVKKPGSSVKVSCKASGYAFSSDWMNWVRQAPGQGLEWMGRIYPGEGDTNYARKFHGRVTITADESTSTAYMELSSLRSEDTAVYYCARLLRNKPGESYAMDYWGQGTLVTVSS VL: DVVMTQTPLSLSVTPGQPASISCRTSQSLVHSNAYTYLHWYLQKPGQSPQLLIYKVSNRVSGVPDRFSGSGSGTDFTLKISRVEAEDVGVYYCSQSTRVPYTFGQGTKLEIKR | – | 3.94 fold | 6.5 nM | 8.77 fold | – | – | 1.02 nM | 1.13 nM | 0.672 nM | 0.013 nM | 1.56 nM | 1.25 nM | 226000 MFI | 1.2 nM |
